Reference: IntAct's records for PubMed 18049475
Values belong to the substance of their own block, whether it stands above or below them.

Legend:
[1] = target: gck3_caeel gck-3 (UniProt G5EEN4)
[2] = target: gck3_caeel gck-3 (UniProt G5EEN4); remark: listed apart in the source
[3] = target: gck3_caeel gck-3 (UniProt G5EEN4); remark: listed apart in the source

Chain of gck3_caeel gck-3 (G5EEN4 whole entry): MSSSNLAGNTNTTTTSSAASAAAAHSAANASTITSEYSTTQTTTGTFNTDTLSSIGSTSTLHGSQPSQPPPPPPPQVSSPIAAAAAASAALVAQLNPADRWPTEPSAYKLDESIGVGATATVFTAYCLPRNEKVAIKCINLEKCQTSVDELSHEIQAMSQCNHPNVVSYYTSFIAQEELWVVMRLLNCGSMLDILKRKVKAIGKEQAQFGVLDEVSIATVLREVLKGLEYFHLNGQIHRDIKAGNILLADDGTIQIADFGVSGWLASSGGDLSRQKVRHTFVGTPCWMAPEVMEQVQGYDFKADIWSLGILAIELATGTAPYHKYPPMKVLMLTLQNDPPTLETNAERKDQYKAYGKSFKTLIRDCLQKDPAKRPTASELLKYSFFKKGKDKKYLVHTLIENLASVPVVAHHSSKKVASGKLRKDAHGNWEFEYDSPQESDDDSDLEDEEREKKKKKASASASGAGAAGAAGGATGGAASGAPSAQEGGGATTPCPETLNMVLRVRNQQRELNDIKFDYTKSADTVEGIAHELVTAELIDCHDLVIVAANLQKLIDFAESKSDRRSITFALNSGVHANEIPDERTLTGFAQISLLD

effect of a mutation on the interaction [1]: decreasing interaction
Substance: Serine/threonine-protein kinase WNK (Caenorhabditis elegans), X5M5N0 F1222A

effect of a mutation on the interaction [2]: decreasing interaction
Substance: Serine/threonine-protein kinase WNK (Caenorhabditis elegans), X5M5N0 F1133A

effect of a mutation on the interaction [3]: disrupting interaction
Substance: Serine/threonine-protein kinase WNK (Caenorhabditis elegans), X5M5N0 F1133A;F1222A
